T1: TFAM (human, UniProt Q00059 43-245)
T1 sequence: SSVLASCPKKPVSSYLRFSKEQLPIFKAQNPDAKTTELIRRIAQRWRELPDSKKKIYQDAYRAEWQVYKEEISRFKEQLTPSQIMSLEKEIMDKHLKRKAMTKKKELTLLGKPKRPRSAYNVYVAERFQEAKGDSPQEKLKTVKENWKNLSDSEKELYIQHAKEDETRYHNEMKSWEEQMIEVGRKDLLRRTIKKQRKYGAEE

B1: LSP -41 to -12 upstream fragment (dsDNA)
DNA 1: TGTGTTAGTTGGGGGGTGACTGTTAAAAGT
DNA 2: ACTTTTAACAGTCACCCCCCAACTAACACA
B2: LSP -41 to +10 (dsDNA)
DNA 1: TGTGTTAGTTGGGGGGTGACTGTTAAAAGTGCATACCGCCAAAAGATAAAA
DNA 2: TTTTATCTTTTGGCGGTATGCACTTTTAACAGTCACCCCCCAACTAACACA

Key:
[1] = target: POLRMT (human, UniProt O00411 43-1230); experiment: fluorescence anisotropy
POLRMT, sequence (O00411 43-1230): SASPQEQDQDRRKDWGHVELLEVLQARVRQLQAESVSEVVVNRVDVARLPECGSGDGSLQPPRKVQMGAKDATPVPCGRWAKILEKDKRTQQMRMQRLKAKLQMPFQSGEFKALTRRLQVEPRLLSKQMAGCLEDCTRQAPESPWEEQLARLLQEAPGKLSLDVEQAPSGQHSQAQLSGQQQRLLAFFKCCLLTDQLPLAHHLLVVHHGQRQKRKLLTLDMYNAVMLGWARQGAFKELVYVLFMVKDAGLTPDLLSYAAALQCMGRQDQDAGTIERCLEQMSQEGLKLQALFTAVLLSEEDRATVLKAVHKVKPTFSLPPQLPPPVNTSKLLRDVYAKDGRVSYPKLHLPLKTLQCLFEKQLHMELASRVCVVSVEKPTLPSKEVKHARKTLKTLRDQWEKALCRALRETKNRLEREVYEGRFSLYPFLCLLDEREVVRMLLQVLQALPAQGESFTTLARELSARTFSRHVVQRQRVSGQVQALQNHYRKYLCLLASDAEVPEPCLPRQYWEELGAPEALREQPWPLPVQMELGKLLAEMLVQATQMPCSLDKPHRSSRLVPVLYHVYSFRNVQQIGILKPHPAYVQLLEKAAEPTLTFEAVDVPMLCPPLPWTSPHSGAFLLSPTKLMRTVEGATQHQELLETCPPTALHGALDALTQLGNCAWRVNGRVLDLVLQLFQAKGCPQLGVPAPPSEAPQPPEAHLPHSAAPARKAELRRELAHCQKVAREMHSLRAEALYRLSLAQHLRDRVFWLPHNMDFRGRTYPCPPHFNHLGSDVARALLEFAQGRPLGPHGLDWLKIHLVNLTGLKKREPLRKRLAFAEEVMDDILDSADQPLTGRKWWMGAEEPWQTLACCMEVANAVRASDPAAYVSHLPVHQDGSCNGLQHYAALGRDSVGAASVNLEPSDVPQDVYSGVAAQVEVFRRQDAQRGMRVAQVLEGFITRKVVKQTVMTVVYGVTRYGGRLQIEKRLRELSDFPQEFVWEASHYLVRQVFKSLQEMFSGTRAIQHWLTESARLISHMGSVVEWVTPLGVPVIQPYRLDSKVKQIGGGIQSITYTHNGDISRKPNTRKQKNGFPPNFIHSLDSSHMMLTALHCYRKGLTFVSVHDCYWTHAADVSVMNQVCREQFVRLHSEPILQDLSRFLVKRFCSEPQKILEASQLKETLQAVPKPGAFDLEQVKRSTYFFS

[2] = target: POLRMT;TFB2M (human;human, UniProt O00411;Q9H5Q4 43-1230;21-396, |); experiment: fluorescence anisotropy
POLRMT;TFB2M, sequence (O00411 43-1230, chain 1 of 2): as the sequence (O00411 43-1230) above
POLRMT;TFB2M, sequence (Q9H5Q4 21-396, chain 2 of 2): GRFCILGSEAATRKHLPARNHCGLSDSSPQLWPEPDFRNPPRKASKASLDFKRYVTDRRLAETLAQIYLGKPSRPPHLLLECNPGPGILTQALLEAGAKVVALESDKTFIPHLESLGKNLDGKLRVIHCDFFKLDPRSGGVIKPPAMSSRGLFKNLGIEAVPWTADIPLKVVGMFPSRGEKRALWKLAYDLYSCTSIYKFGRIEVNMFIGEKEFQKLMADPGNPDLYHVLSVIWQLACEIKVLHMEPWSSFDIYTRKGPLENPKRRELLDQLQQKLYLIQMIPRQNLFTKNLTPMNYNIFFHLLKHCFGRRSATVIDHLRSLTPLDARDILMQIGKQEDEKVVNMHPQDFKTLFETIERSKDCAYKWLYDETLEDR

[3] = target: T1, TFAM; experiment: EMSA
[4] = target: T1, TFAM; experiment: fluorescence anisotropy
[5] = target: POLRMT;TFAM (human;human, UniProt O00411;Q00059 43-1230;43-245, |); experiment: fluorescence anisotropy
POLRMT;TFAM, sequence (O00411 43-1230, one chain of several): as the sequence (O00411 43-1230) above

[6] = target: POLRMT;TFAM;TFB2M (human;human;human, UniProt O00411;Q00059;Q9H5Q4 43-1230;43-245;21-396, ||); experiment: fluorescence anisotropy
POLRMT;TFAM;TFB2M, sequence (O00411 43-1230, chain 1 of 2): as the sequence (O00411 43-1230) above
POLRMT;TFAM;TFB2M, sequence (Q9H5Q4 21-396, chain 3 of 2): as the sequence (Q9H5Q4 21-396, chain 2 of 2) above

Binder | Kd [1] | Kd [2] | binding result [3] | Kd [4] | Kd [5] | Kd [6]
B1 | 8 nM | 5 nM | binds | – | – | –
B2 | – | – | – | 7 nM | 3 nM | 4 nM
